Reference: patent US20230158141A1 (YAFEI SHANGHAI BIOLOG MEDICINE SCIENCE AND TECHNOLOGY, published 2023)

T1: IL-10R1-Fc (UniProt Q13651 22-235, limits assumed)
T1 sequence (looked up): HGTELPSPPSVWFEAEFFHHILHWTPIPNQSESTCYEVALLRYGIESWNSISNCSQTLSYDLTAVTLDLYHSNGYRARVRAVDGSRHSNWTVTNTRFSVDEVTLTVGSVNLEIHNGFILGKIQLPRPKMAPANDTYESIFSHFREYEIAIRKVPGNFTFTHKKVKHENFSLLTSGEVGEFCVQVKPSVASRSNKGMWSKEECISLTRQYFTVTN


Molecular target: T1, IL-10R1-Fc
Test: ELISA, IL-10R1-Fc coated

Row | Binder | Decreased fold of binding to ligand after Conjugating with S48 [fold] | Binding recovery (>60%) [%]
1 | IL-10 Phe143Cys-S48 (ligand, human, UniProt P22301 19-178, looked up, S48 on Cys 143, mature) SPGQGTQSENSCTHFPGNLPNMLRDLRDAFSRVKTFFQMKDQLDNLLLKESLLEDFKGYLGCQALSEMIQFYLEEVMPQAENQDPDIKAHVNSLGENLKTLRLRLRRCHRFLPCENKSKAVEQVKNAFNKLQEKGIYKAMSECDIFINYIEAYMTMKIRN | 7 | 
2 | IL-10 Tyr72Cys-R4-4 (ligand, human, UniProt P22301 19-178, looked up, R4-4 on Cys 72, mature) SPGQGTQSENSCTHFPGNLPNMLRDLRDAFSRVKTFFQMKDQLDNLLLKESLLEDFKGYLGCQALSEMIQFCLEEVMPQAENQDPDIKAHVNSLGENLKTLRLRLRRCHRFLPCENKSKAVEQVKNAFNKLQEKGIYKAMSEFDIFINYIEAYMTMKIRN |  | 109
3 | IL-10 Ser11Cys-S48 (ligand, human, UniProt P22301 19-178, looked up, S48 on Cys 11, mature) SPGQGTQSENCCTHFPGNLPNMLRDLRDAFSRVKTFFQMKDQLDNLLLKESLLEDFKGYLGCQALSEMIQFYLEEVMPQAENQDPDIKAHVNSLGENLKTLRLRLRRCHRFLPCENKSKAVEQVKNAFNKLQEKGIYKAMSEFDIFINYIEAYMTMKIRN | 9 | 
4 | IL-10 Thr155Cys-S48 (ligand, human, UniProt P22301 19-178, looked up, S48 on Cys 155, mature) SPGQGTQSENSCTHFPGNLPNMLRDLRDAFSRVKTFFQMKDQLDNLLLKESLLEDFKGYLGCQALSEMIQFYLEEVMPQAENQDPDIKAHVNSLGENLKTLRLRLRRCHRFLPCENKSKAVEQVKNAFNKLQEKGIYKAMSEFDIFINYIEAYMCMKIRN | 3 | 
5 | IL-10 Ser8Cys-S48 (ligand, human, UniProt P22301 19-178, looked up, S48 on Cys 8, mature) SPGQGTQCENSCTHFPGNLPNMLRDLRDAFSRVKTFFQMKDQLDNLLLKESLLEDFKGYLGCQALSEMIQFYLEEVMPQAENQDPDIKAHVNSLGENLKTLRLRLRRCHRFLPCENKSKAVEQVKNAFNKLQEKGIYKAMSEFDIFINYIEAYMTMKIRN | 3 | 
6 | IL-10 Val91Cys-S48 (ligand, human, UniProt P22301 19-178, looked up, S48 on Cys 91, mature) SPGQGTQSENSCTHFPGNLPNMLRDLRDAFSRVKTFFQMKDQLDNLLLKESLLEDFKGYLGCQALSEMIQFYLEEVMPQAENQDPDIKAHCNSLGENLKTLRLRLRRCHRFLPCENKSKAVEQVKNAFNKLQEKGIYKAMSEFDIFINYIEAYMTMKIRN | 3 | 
7 | IL-10 Ser118Cys-S48 (ligand, human, UniProt P22301 19-178, looked up, S48 on Cys 118, mature) SPGQGTQSENSCTHFPGNLPNMLRDLRDAFSRVKTFFQMKDQLDNLLLKESLLEDFKGYLGCQALSEMIQFYLEEVMPQAENQDPDIKAHVNSLGENLKTLRLRLRRCHRFLPCENKCKAVEQVKNAFNKLQEKGIYKAMSEFDIFINYIEAYMTMKIRN | 3 | 
8 | IL-10 Tyr137Cys-S48 (ligand, human, UniProt P22301 19-178, looked up, S48 on Cys 137, mature) SPGQGTQSENSCTHFPGNLPNMLRDLRDAFSRVKTFFQMKDQLDNLLLKESLLEDFKGYLGCQALSEMIQFYLEEVMPQAENQDPDIKAHVNSLGENLKTLRLRLRRCHRFLPCENKSKAVEQVKNAFNKLQEKGICKAMSEFDIFINYIEAYMTMKIRN | 5 | 
9 | IL-10 Ser141Cys-R4-7 (ligand, human, UniProt P22301 19-178, looked up, R4-7 on Cys 141, mature) SPGQGTQSENSCTHFPGNLPNMLRDLRDAFSRVKTFFQMKDQLDNLLLKESLLEDFKGYLGCQALSEMIQFYLEEVMPQAENQDPDIKAHVNSLGENLKTLRLRLRRCHRFLPCENKSKAVEQVKNAFNKLQEKGIYKAMCEFDIFINYIEAYMTMKIRN |  | 112
10 | IL-10 Ser141Cys-S48 (ligand, human, UniProt P22301 19-178, looked up, S48 on Cys 141, mature) SPGQGTQSENSCTHFPGNLPNMLRDLRDAFSRVKTFFQMKDQLDNLLLKESLLEDFKGYLGCQALSEMIQFYLEEVMPQAENQDPDIKAHVNSLGENLKTLRLRLRRCHRFLPCENKSKAVEQVKNAFNKLQEKGIYKAMCEFDIFINYIEAYMTMKIRN | 19 | 
11 | IL-10 Tyr137Cys-R4-4 (ligand, human, UniProt P22301 19-178, looked up, R4-4 on Cys 137, mature) SPGQGTQSENSCTHFPGNLPNMLRDLRDAFSRVKTFFQMKDQLDNLLLKESLLEDFKGYLGCQALSEMIQFYLEEVMPQAENQDPDIKAHVNSLGENLKTLRLRLRRCHRFLPCENKSKAVEQVKNAFNKLQEKGICKAMSEFDIFINYIEAYMTMKIRN |  | 99.1
12 | IL-10 Ser51Cys-R4-7 (ligand, human, UniProt P22301 19-178, looked up, R4-7 on Cys 51, mature) SPGQGTQSENSCTHFPGNLPNMLRDLRDAFSRVKTFFQMKDQLDNLLLKECLLEDFKGYLGCQALSEMIQFYLEEVMPQAENQDPDIKAHVNSLGENLKTLRLRLRRCHRFLPCENKSKAVEQVKNAFNKLQEKGIYKAMSEFDIFINYIEAYMTMKIRN |  | 96.7
13 | IL-10 Thr13Cys-R4-6 (ligand, human, UniProt P22301 19-178, looked up, R4-6 on Cys 13, mature) SPGQGTQSENSCCHFPGNLPNMLRDLRDAFSRVKTFFQMKDQLDNLLLKESLLEDFKGYLGCQALSEMIQFYLEEVMPQAENQDPDIKAHVNSLGENLKTLRLRLRRCHRFLPCENKSKAVEQVKNAFNKLQEKGIYKAMSEFDIFINYIEAYMTMKIRN |  | 99.1
14 | IL-10 Tyr149Cys-R4-4 (ligand, human, UniProt P22301 19-178, looked up, R4-4 on Cys 149, mature) SPGQGTQSENSCTHFPGNLPNMLRDLRDAFSRVKTFFQMKDQLDNLLLKESLLEDFKGYLGCQALSEMIQFYLEEVMPQAENQDPDIKAHVNSLGENLKTLRLRLRRCHRFLPCENKSKAVEQVKNAFNKLQEKGIYKAMSEFDIFINCIEAYMTMKIRN |  | 115
15 | IL-10 Ser118Cys-R4-5 (ligand, human, UniProt P22301 19-178, looked up, R4-5 on Cys 118, mature) SPGQGTQSENSCTHFPGNLPNMLRDLRDAFSRVKTFFQMKDQLDNLLLKESLLEDFKGYLGCQALSEMIQFYLEEVMPQAENQDPDIKAHVNSLGENLKTLRLRLRRCHRFLPCENKCKAVEQVKNAFNKLQEKGIYKAMSEFDIFINYIEAYMTMKIRN |  | 100
16 | IL-10 Val91Cys-R4-5 (ligand, human, UniProt P22301 19-178, looked up, R4-5 on Cys 91, mature) SPGQGTQSENSCTHFPGNLPNMLRDLRDAFSRVKTFFQMKDQLDNLLLKESLLEDFKGYLGCQALSEMIQFYLEEVMPQAENQDPDIKAHCNSLGENLKTLRLRLRRCHRFLPCENKSKAVEQVKNAFNKLQEKGIYKAMSEFDIFINYIEAYMTMKIRN |  | 97.2
17 | IL-10 Ser11Cys-R4-7 (ligand, human, UniProt P22301 19-178, looked up, R4-7 on Cys 11, mature) SPGQGTQSENCCTHFPGNLPNMLRDLRDAFSRVKTFFQMKDQLDNLLLKESLLEDFKGYLGCQALSEMIQFYLEEVMPQAENQDPDIKAHVNSLGENLKTLRLRLRRCHRFLPCENKSKAVEQVKNAFNKLQEKGIYKAMSEFDIFINYIEAYMTMKIRN |  | 133

More lines, now with the values ahead:

Row | Decreased fold of binding to ligand after Conjugating with S48 [fold] | Binding recovery (>60%) [%] | Binder
18 |  | 98.1 | IL-10 Thr155Cys-R4-7 (ligand, human, UniProt P22301 19-178, looked up, R4-7 on Cys 155, mature) SPGQGTQSENSCTHFPGNLPNMLRDLRDAFSRVKTFFQMKDQLDNLLLKESLLEDFKGYLGCQALSEMIQFYLEEVMPQAENQDPDIKAHVNSLGENLKTLRLRLRRCHRFLPCENKSKAVEQVKNAFNKLQEKGIYKAMSEFDIFINYIEAYMCMKIRN
19 |  | 100 | IL-10 Ser8Cys-R4-5 (ligand, human, UniProt P22301 19-178, looked up, R4-5 on Cys 8, mature) SPGQGTQCENSCTHFPGNLPNMLRDLRDAFSRVKTFFQMKDQLDNLLLKESLLEDFKGYLGCQALSEMIQFYLEEVMPQAENQDPDIKAHVNSLGENLKTLRLRLRRCHRFLPCENKSKAVEQVKNAFNKLQEKGIYKAMSEFDIFINYIEAYMTMKIRN
20 |  | 100 | IL-10 Ser93Cys-R4-2 (ligand, human, UniProt P22301 19-178, looked up, R4-2 on Cys 93, mature; the row prints S in one column and Asp in the next) SPGQGTQSENSCTHFPGNLPNMLRDLRDAFSRVKTFFQMKDQLDNLLLKESLLEDFKGYLGCQALSEMIQFYLEEVMPQAENQDPDIKAHVNCLGENLKTLRLRLRRCHRFLPCENKSKAVEQVKNAFNKLQEKGIYKAMSEFDIFINYIEAYMTMKIRN
21 | 3 |  | IL-10 Tyr72Cys-S48 (ligand, human, UniProt P22301 19-178, looked up, S48 on Cys 72, mature) SPGQGTQSENSCTHFPGNLPNMLRDLRDAFSRVKTFFQMKDQLDNLLLKESLLEDFKGYLGCQALSEMIQFCLEEVMPQAENQDPDIKAHVNSLGENLKTLRLRLRRCHRFLPCENKSKAVEQVKNAFNKLQEKGIYKAMSEFDIFINYIEAYMTMKIRN
22 | 3 |  | IL-10 Ser51Cys-S48 (ligand, human, UniProt P22301 19-178, looked up, S48 on Cys 51, mature) SPGQGTQSENSCTHFPGNLPNMLRDLRDAFSRVKTFFQMKDQLDNLLLKECLLEDFKGYLGCQALSEMIQFYLEEVMPQAENQDPDIKAHVNSLGENLKTLRLRLRRCHRFLPCENKSKAVEQVKNAFNKLQEKGIYKAMSEFDIFINYIEAYMTMKIRN
23 | 3 |  | IL-10 Ser93Cys-S48 (ligand, human, UniProt P22301 19-178, looked up, S48 on Cys 93, mature; the row prints S in one column and Asp in the next) SPGQGTQSENSCTHFPGNLPNMLRDLRDAFSRVKTFFQMKDQLDNLLLKESLLEDFKGYLGCQALSEMIQFYLEEVMPQAENQDPDIKAHVNCLGENLKTLRLRLRRCHRFLPCENKSKAVEQVKNAFNKLQEKGIYKAMSEFDIFINYIEAYMTMKIRN
24 | 5 |  | IL-10 Tyr149Cys-S48 (ligand, human, UniProt P22301 19-178, looked up, S48 on Cys 149, mature) SPGQGTQSENSCTHFPGNLPNMLRDLRDAFSRVKTFFQMKDQLDNLLLKESLLEDFKGYLGCQALSEMIQFYLEEVMPQAENQDPDIKAHVNSLGENLKTLRLRLRRCHRFLPCENKSKAVEQVKNAFNKLQEKGIYKAMSEFDIFINCIEAYMTMKIRN
25 | 7 |  | IL-10 Thr13Cys-S48 (ligand, human, UniProt P22301 19-178, looked up, S48 on Cys 13, mature) SPGQGTQSENSCCHFPGNLPNMLRDLRDAFSRVKTFFQMKDQLDNLLLKESLLEDFKGYLGCQALSEMIQFYLEEVMPQAENQDPDIKAHVNSLGENLKTLRLRLRRCHRFLPCENKSKAVEQVKNAFNKLQEKGIYKAMSEFDIFINYIEAYMTMKIRN
26 |  | 90.1 | IL-10 Thr35Cys-R4-6 (ligand, human, UniProt P22301 19-178, looked up, R4-6 on Cys 35, mature) SPGQGTQSENSCTHFPGNLPNMLRDLRDAFSRVKCFFQMKDQLDNLLLKESLLEDFKGYLGCQALSEMIQFYLEEVMPQAENQDPDIKAHVNSLGENLKTLRLRLRRCHRFLPCENKSKAVEQVKNAFNKLQEKGIYKAMSEFDIFINYIEAYMTMKIRN
